Data as given in patent publication US20250170316A1.

Molecular target: complement factor H present in serum (human) (UniProt P08603)
Test: cell-based or functional assay

Sequence of UniProt P08603 (P08603 19-1231 limits assumed): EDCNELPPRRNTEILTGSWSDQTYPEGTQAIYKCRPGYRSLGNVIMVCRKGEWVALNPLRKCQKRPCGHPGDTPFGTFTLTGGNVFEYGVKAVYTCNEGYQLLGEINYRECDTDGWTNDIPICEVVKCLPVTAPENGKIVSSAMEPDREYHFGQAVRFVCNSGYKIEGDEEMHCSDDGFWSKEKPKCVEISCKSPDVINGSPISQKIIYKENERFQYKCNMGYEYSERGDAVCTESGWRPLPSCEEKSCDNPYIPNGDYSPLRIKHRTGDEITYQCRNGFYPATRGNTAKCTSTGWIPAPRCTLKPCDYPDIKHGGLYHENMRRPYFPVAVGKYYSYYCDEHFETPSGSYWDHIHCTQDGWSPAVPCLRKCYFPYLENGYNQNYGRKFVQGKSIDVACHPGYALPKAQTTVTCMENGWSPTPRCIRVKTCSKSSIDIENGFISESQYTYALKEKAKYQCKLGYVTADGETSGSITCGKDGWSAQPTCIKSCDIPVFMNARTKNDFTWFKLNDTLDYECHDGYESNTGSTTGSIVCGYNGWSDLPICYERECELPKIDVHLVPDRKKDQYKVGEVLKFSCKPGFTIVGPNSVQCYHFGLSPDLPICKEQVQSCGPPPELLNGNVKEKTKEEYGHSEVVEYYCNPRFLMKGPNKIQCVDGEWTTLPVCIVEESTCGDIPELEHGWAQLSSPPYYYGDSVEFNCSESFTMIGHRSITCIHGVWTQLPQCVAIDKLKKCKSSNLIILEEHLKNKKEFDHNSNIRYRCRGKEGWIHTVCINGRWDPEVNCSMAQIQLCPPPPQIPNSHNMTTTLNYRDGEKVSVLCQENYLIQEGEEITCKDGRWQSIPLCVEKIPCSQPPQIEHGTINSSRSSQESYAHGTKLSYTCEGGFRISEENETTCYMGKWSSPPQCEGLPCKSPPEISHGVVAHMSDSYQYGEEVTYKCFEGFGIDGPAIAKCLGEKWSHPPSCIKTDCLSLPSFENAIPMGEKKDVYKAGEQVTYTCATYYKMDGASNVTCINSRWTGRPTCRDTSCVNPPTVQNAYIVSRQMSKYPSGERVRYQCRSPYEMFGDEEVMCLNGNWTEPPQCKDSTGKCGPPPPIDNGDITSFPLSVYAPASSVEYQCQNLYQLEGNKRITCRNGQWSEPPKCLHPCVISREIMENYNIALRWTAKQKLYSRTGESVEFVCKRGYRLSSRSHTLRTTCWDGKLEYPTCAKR

PspCN (residues 37-140 of pneumococcal surface protein C, PspC, of Streptococcus pneumoniae strain D39)
inhibition of acidified serum lysis of PNH-like (AET-treated) erythrocytes, IC50: 27 nM
